From the DeepSol protein solubility set

Assay: soluble on expression in E. coli; label from the status in PepcDB or PDB records

KFDGDDPVIPEWTQGGQIIPTMNLKVGDSVYTRVFDQSGENVAYRTELAISNDVLTQAKNWSYALASKINQEQTKLQAGQYSEDKFTPVYGTNPIYLQSNSGLERVEIGYNIETPVPDYSLTVDGLASEYIIGTEPTALDLTLTAEGDLTAELTVYNHHREPLASWTGSIQDGASEQVELTLSKSEPGHHMLVTRIKDTDGNLVDQQTLDFHLKSEEVTPPPSGEYDFVFPEGLSSYTAGTKVLASDGAIYQCKPFPYSGYCVQWSESATQFEPATGSHWEMAWDKLN
soluble on expression in E. coli: not soluble

GMQMNNHIRLRKAEGKWVIRTDSAVLGETLNAIELTEGSRDPVIYFPREDVAMVMFDKSEKVTACPLKGEASYYSIVGASGTLKDAAWSYESPKEGLEAIAGYLAFAPDCTKVGQY
soluble on expression in E. coli: soluble

MQRGKVKWFNNEKGYGFIEVEGGSDVFVHFTAIQGEGFKTLEEGQEVSFEIVQGNRGPQAANVTKEA
soluble on expression in E. coli: soluble

MSLKRQRIVIKIGSSSLTTKQGALDLEKLEGYVRAIVNLRKAGHEVILISSGAVAAGFSRLGYPVRPTTMAGKQAAAAVGQALLMQHYMERFHQHGIIAAQLLLTRKDFQNQTQYTNAYSALMELLKRGALPIINENDSTSIAELTFGDNDMLSALVSGLIHAHTLCILTDVNGLYDANPKTHPNAKRYQYLPTIPDEMLQMGGEAGSNVGTGGMKSKVAAAQTALSLGVDVFIGKASGEHALLDILSGKGDGTYVGNTGDLMEGKTKQWIRLHSPVSGVVRIDQGAERAIMNEGKSLLPAGVTSVHGTFQAGDVVHIWNEQNKVIAKGQVTLSSEQLRKVQGRKSDEAKQLIPLVRDEVVHRDQLVIQEKELNESEGHHHHHH
soluble on expression in E. coli: not soluble

MAKRDYYEVLGVSRDAEEREIKKAYKRLAMKFHPDRQSEDKNAEEKFKEAKEAYEILTDAQKRAAYDQYGHAAFEQGGMGGGGFGGGGGGADFSDIFGDVFGDIFGGGRRQQRASRGSDLRYNMDLTLEEAVRGVTKEIRIPTLDECDVCHGSGAKPGSSPVTCPTCHGAGQVQMRQGFFTVQQACPHCHGRGQIIKDPCNKCHGHGRVEKSKTLSVKIPAGVDTGDRIRLSGEGEAGEHGAPSGDLYVQVQVKAHPIFEREGNNLYCEVPINFAMAALGGEIEVPTLDGRVKLKIPAETQTGKMFRMRGKGVKSVRGGSQGDLLCRVVVETPVSLSEKQKQLLRELEESFVGAAGEKNSPRAKSFLDGVKKFFDDLTR
soluble on expression in E. coli: not soluble

MSLTPRFIDLHTHTTASDGSDSPADLVRKATEAGLAAVAVTDHDTVAGLDEAVAMGHETGIEVVRGCELGVRSEYGEIHILGLWLPEKPETLLDAMKELRRHRNERNERIVDNLRTLGMDITYEEVRALSGGVSVGRPHIALALLRHGYIRTPQEAFDRFIGPGAPAYAPKKVFSPAEGVRLLASCGATVAIAHPMLLRCPEEWLDDTVADLKVAGLDAIEAYHSEHSHKDERRCVDIADRHGLVLTGGSDYHGKAKPAISLGRGRGGLRVTTHVLDNLKRHRRERGLEGHHHHHH
soluble on expression in E. coli: soluble

MGSDKIHHHHHHMDDTDWIGETFTSTVGWDHLETLVDIGNRMAGSGGERAAAEATRDALAEYTRDARLSEFGIQGWERGDSAVHAGGSPVATQAHECIALPRSPAGEVTGELVDVGHGLPEDFEDADCEGQIVLARSDVPDWYDRYIHRREKYYHAVEAGAAGFIYRNHVDGVLPPTGSVGTADAPIGEIPAIGVASETGARLARRYAGENVTLSVDCETPKATSQNVHAELGPDTDERLLVTSHADAHDIAEGAMDNGAGTAMVVEVARALAGREDELATRVEFVAFGAEEVGLVGSNRLAGETTLDDVTAVLNFDGVVQGRTLKCYTHGFDALTAAAEDVADRLDHPISLTPEQGPHSDHWPFVQRGVPGYHVTSETGGEGRGWGHTHADTLDKLEPRTFREQAVLLTELAVALADDSARPAHKDPAEIANALEAQNLAEGMRITGDWPFGD
soluble on expression in E. coli: not soluble

MALNVIKISRVSLVTNSVEPLVLPLTFFDLLWLKLNPIERVTFYKLTESSRDSFFSSILPKLEQSLSLVLSHFLPLSGHLKWNPQDPKPHIVIFPKDTVSLTVVESEADFSYISSKELRLETELRPLVPELQVSSDSASLLSLQITLFPNQGFSIGTTVHHVVMDGKTASKFHKSWAHICKHGTTPQDFDLPTVLDRTVINVPAGLEQKIFQLSSYISEEKDYARTLTLPPAKEIDNDVVRVTLELTEVDIEKLKERAKNESTRSDLHLSTFVVSYAYVLTCMVKSCGGDANRPVRFMYAADFRNRLDPPVPLTYFGNCVLPIDFNGYKATTFLGKDGYVNGVEILSDSVRGLGSRNIESIWEVYEDGTKNMKLDTQNVTVTGSNQFGIYGSDFGWGRPVKTDVMSLYKNNEFSMSARRDEIGGLEIGISLKKCEMNVFLSLFTSDFDIYK
soluble on expression in E. coli: soluble

MFPRKELLKDGSLLLIREASIWDARRIVEYLKEVTSETDFLITRPDEVYDVSTERNYIRMYRSNPGKLMIVGEINREIVSLLTFTGFGRKRTKHVGEIGISVKKRYWNIGIGTRMITSAIEWARRNGFIRIQLEVLKSNERAISLYRKLGFELEGIKRKAVRRDDGSFEDVLVMALLLD
soluble on expression in E. coli: soluble

MNVLICQQPKELVWKQREIPIPGDNEALIKIKSVGICGTDIHAWGGNQPFFSYPRVLGHEICGEIVGLGKNIADLKNGQQVAVIPYVACQQCPACKSGRTNCEKISVIGVHQDGGFSEYLSVPVANILPADGIDPQAAALIEPFAISAHAVRRAAIAPGEQVLVVGAGPIGLGAAAIAKADGAQVVVADTSPARREHVATRLELPLLDPSAEDFDAQLRAQFGGSLAQKVIDATGNQHAMNNTVNLIRHGGTVVFVGLFKGELQFSDPEFHKKETTMMGSRNATPEDFAKVGRLMAEGKITADMMLTHRYPFATLAETYERDVINNRELIKGVITF
soluble on expression in E. coli: not soluble

MAGLKYEDAGVNIEAGNQAVERMKQHVKKTFTQDVLTGLGSFGSLYSLKNIINNYDDPVLVQSIDGVGTKTKVAVMCGKFENLGYDLFSAATNDIVVMGAKPITFLDYVAHDKLDPAIMEELVKGMSKACAECGVSLVGGETAEMPGVYQAGEIDMVGVITGIVDRKRIINGENIKEGDIVFGLSSSGLHTNGYSFARKLFFDVAGNKHTDTYPELEGKTIGDVLLEPHINYTNIIHDFLDNGVDIKGMAHITGGGFIENIPRVLPQGLGAQIDKDSFATPAIFKLMQRIGDISEFEMYRSFNMGIGMTIIASQDQFDKMQELAKKHTNTKLYQIGKITNSGKVEII
soluble on expression in E. coli: soluble

MSLEQNPVDLDSLTLVNEDELETSVALDNMARRARNGCNEQLKVLCHRIEYLFESKREVNEHNNPLEPRQLVACFSEGLEKLSLDIKARLIILKLFEREVMAETGYLVSEANKVLIDAGVLPEMKSAPIAPAHKPGSRSLANQGNDNVMPTAGNAGVHSNDQVFGLLQELLVTMRGMQARPGDGASDVASEAPMAVMQNGVPYMNGAPLANAASVHQVNSDDLLGVLNRLQRVERSLGEDEGEERADLKTDLSELLDNEHGEAIHALDQADDDVINLVALLFDFILDDEGLPSDIKALLGRLQIPLLKVAIMDKAFFNNDNHEARLLLNMLARAGSQWDPHLGIQDDLYQRINHAVHRIIDDYEDDASLFSSLLQEFQQFFDSQKTRSDRVEQRVREAEEGKARAEQARREVVTVLDNRMAGRQLPDVVVRLLRQGWQQALYLTWLHEGENSPLWQQQVKVVDAVVWSVLEHRDQDALEKLKTLSPKLLKTLHEGLTKINHDAMETKQLLVKFRDVHHRLLKGLQTERVAVEPELPAQRAQPETAPELPENHFLVKKCSQLAPGQWIEIQDNDEPRRAKLAANIRAGVKIVFTNRRGIKVQEYSAYTLAVALHNGAVKLIDEGALFDRALEAVIGDLRRMQGNEGHHHHHH
soluble on expression in E. coli: not soluble

MSDIERRHTIMAKGSVRKKGKKWYYRFYVEDASGNLVQKEYAGTESKSETEKLLRQAMDDYESKKFIAKSENITIGELLDIWAEEELKTGMLSNGTVQNYLGAITNIKKHPISERKLKNVTSEHLQAFFDLLSFGGTYPDGSERKGYSKDYIRSFSAVLQQSFRFAVSPKQYITFNPMQYIKLKYQTDEVDLFSDDDMDGDIQPIPREDYERLIEFLQNYNPPAILPIQIAYYAGLRIGEACGLAWQDVNLEEQCLTIRRSIRYDGSRHKNIIGPTKRKKVRIVDFGDTLAEILRNARKEQLKNRMQYGELYHKNYYREVKDKNRVYYEFYHLDGTENVPEDYKEISFVCLRPDGSLELPSTLGIVCRKIAQKLDGFEGFHFHQLRHTYTSNLLANGAAPKDVQELLGHSDVSTTMNVYAHSTRKAKRESARLLDKVAGND
soluble on expression in E. coli: not soluble
